From patent US20250381293A1, “PEPTIDES AND MAGNETIC PARTICLE-PEPTIDE CONJUGATES FOR PREVENTION OR TREATMENT OF GLAUCOMA” (THE GOVERNORS OF THE UNIVERSITY OF ALBERTA, priority 2022, published 2025)

Key:
[1] = tested on: hTM cells; assay: Live/dead cell viability assay on hTM monolayers; type: cell-based; details: free peptide solution, 1 mM; mean±1 SD, n≥3
Procedure: Primary human trabecular meshwork (hTM) cells were obtained from ScienCell Research Laboratories (Carlsbad, CA), and maintained in TMCM medium (ScienCell, no. 6591). Primary cell culture was passaged according to the manufacturer's instructions. Passage three cells were seeded on tissue culture plates coated with gelatin and media were refreshed every 2-3 days. These monolayer cultures were used in subsequent experiments upon reaching 95-100% confluency.
Cell viability was further assayed using LIVE/DEAD® viability/cytotoxicity kit (Molecular Probes). Monolayers of hTM cells were treated in triplicates with peptides alone in solution (1 mM) and in conjugation with MPs (100 μg). Cell viability was then assessed according to the manufacturer's protocol. The kit is based on calcein AM/ethidium homodimer-1 (EthD-1) system, where calcein AM detects cellular esterase activity of live cells and EthD-1 stains nuclei of dead cells. A similar live/dead assay was used to investigate the effect of MP-peptide conjugates on the viability of hTM cells in the presence of the rotating magnetic field. […] The viability of hTM cells was then assessed as described above. […] The cells were treated with the rotating magnetic field for 10 min and then analyzed using live/dead assay as described before. […]

[2] = tested on: XFS materials; assay: Ex vivo targeting of Cy5-labeled phage-displayed peptides on exfoliative human lens capsules; type: binding; details: 1 hr, 37° C., human aqueous humor/BSS; fluorescence microscopy
Procedure: Amplified phages (1×10^11 pfu) were resuspended in 0.3 M NaHCO3 (pH 8.6) containing 10 μg Cy5 dye and incubated for 2 hr at room temperature in the dark. Subsequent to phage/fluorophore incubation, 40 μl of 10 mM lysine was added to interact with remaining free Cy5 dye molecules in the solution. The volume of the reaction mixture was subsequently brought up to 1 ml with PBS buffer, and the phages were purified with two rounds of 20% (w/v) polyethylene glycol-8000, 2.5 M NaCl precipitation. The labeled phages resuspended in BSS solution.
Fluorescently labeled phages carrying identified targeting peptides as well as wild-type phages without peptide-encoding inserts were incubated with exfoliative human lens capsules in a 100-μl solution containing equal volumes of human aqueous humor fluid and BSS solution. The incubation was allowed to continue for 1 hr at 37° C. After serially washing with BSST buffer (0.1, 0.3%), three times each, the lens capsules were mounted on microscope slides and were examined under an Olympus IX81 inverted fluorescence microscope (Olympus Corporation, Tokyo, Japan). The location of XFS materials on the surface of the lens capsule was confirmed in bright-field mode prior to fluorescence imaging.

[3] = tested on: hTM cells; assay: DNA fragmentation analysis (apoptosis); type: cell-based, human; details: free peptide solution, 24 hr (0.5 mM, elsewhere in the source)
Procedure: Effect of peptide-particle conjugates and peptide solutions on the induction of apoptotic DNA fragmentation was analyzed in hTM cells. […] Cells were recovered from wells using a cell scraper. DNA was isolated and purified using DNeasy blood and tissue kit (Qiagen). Extracted DNA molecules from control and treated hTM cells were subjected to 2% agarose gel electrophoresis and visualized by SYBR green staining.

| Sequence | % of live cells [1] [%] | binding of Cy5-labeled phages to XFS materials on lens capsule [2] | apoptotic chromosomal DNA fragmentation [3] |
| --- | --- | --- | --- |
| IPLLNPGSMQLS [p-IPL] | 99.00 ± 0.37 | specific binding to XFS materials | chromosomal DNA remained intact |
| LPSYNLHPHVPP [p-LPS] | 99.12 ± 0.94 | specific binding to XFS materials | chromosomal DNA remained intact |
